Experimental data as given in article doi:10.1101/858225, “FANCD2-FANCI is a clamp stabilized on DNA by monoubiquitination during DNA repair” (bioRxiv, 2019).

B1: His-tagged Gallus gallus FANCI (expressed alone) (natural protein, UniProt B0I564 1-1338, looked up)
chain: MAQRILQLAAEGSPERLQEALQGLTEGELGDMVTRQALRGRETAALLKGIFKGSPCSQQSGVLRRLQVYKHCVSLVESGDLHVGKVSEIIGLLMLEARQLPGHALAELATLFVEVIKRGSLSNGKSLELFSTVLTALSNSKESLAYGKGELNGEEFKKQLINTLCSSKWDPQCVIHLANMFRDIPLSGEELQFVVEKVLRMFSKLDLQEIPPLVYQLLLLSAKGSKKTVLEGIISFFNQLDKRQKEEQRVPQSADLEVATVPLDQLRHVEGTVILHIVSAINLDQDIGEELIKHLKTEQQKDPGKALCPFSVSLLLSTAVKHRLQEQIFDFLKTSITRSCKDLQILQASKFLQDLCPQQYDVTAVILEVVKNSAFGWDHVTQGLVDLGFSLMESYEPKKSFGGKAAETNLGLSKMPAQQACKLGASILLETFKVHEPIRSDILEQVLNRVLTKAASPVSHFIDLLSNIVVSAPLVLQNSSSRVTETFDNLSFLPIDTVQGLLRAVQPLLKVSMSVRDSLILVLQKAIFSRQLDARKAAVAGFLLLLRNFKILGSLTSSQCSQAIGATQVQADVHACYNSAANEAFCLEILGSLRRCLSQQADVRLMLYEGFYDVLRRNSQLASSIMETLLSQIKQYYLPQQDLLPPLKLEGCIMAQGDQIFLQEPLAHLLCCIQHCLAWYKSTVHLCKGAEDEEEEEDVGFEQNFEEMLESVTRRMIKSELEDFELDKSADFSPSSGVGVKNNIYAIQVMGICEVLIEYNFKIGNFSKNKFEDVLGLFTCYNKLSEILKEKAGKNKSTLGNRIARSFLSMGFVSTLLTALFRDNAQSHEESLAVLRSSTEFMRYAVSVALQKVQQLEEMGQTDGPDGQNPEKMFQNLCKITRVLLWRYTSIPTAVEESGKKKGKSISLLCLEGLLRIFNTMQQLYAARIPQFLQALDITDGDAEEADINVTEKAAFQIRQFQRSLVNQLSSAEDDFNSKETQLLITILSTLSKLLDPGSQQFLQFLTWTVKICKENALEDLSCCKGLLTLLFSLHVLYKSPVSLLRELAQDIHACLGDIDQDVEIESRSHFAIVNVKTAAPTVCLLVLGQADKVLEEVDWLIKRLTILGSDTSEDSTQASNQTQALEKGVILQLGTLLTVFHELVQTALPAGSCVDSLLRSLSKTYAILTSLIKHYIQACRSTSNTVPGRLEKLVKLSGSHLTPQCYSFITYVQNIHSESLSFAEEKKKKKKEDETAVVSTVMAKVLRDTKPIPNLIFAIEQYEKFLIHLSKKSKVNLMQYMKLSTSRDFRINASMLDSVLQEQNTEDAENEPDNNQSGTAEQPDENQEPQKKRRRKK
notes: FANCI, Gallus gallus, full length cDNA synthesized (GeneArt); C-terminal extension with a 3C protease site before the 6x His tag; no cleavage is described; The results call the FANCI of the pull-down 'untagged', the methods 'His-tagged'; also called free FANCI; monomeric FANCI; source: Sf9, purified (HisTrap, heparin, Superdex 200); not shown: 6x His, C-terminal, kept
B2: StrepII-tagged Gallus gallus FANCD2 (expressed alone) (natural protein, UniProt Q68Y81 1-1439, looked up)
chain: MVSKRKLSKIDAAEESSKTDLQSRCPETKRSRISDKRAPSQGGLENEGVFEELLRTSGIILKVGEGQNEIAVDQTAFQKKLRVALEKHPSYPGVVNEFISGLESHIKDRSQFKNCLLPCTPARTEGSRTLVHSYCESLIKLLLGIKILQPAVVTLLLEKIPEFFFDVVGTFGTNFPRLIVNQFKWLDGLLDSQDLVKKLMQMLSVSPVPIQHDIITSLPEILEDSQQNEVARELSCLLKQGRRLTVPILDALSRLDLDAELLAEVRQSAMTIVPSVKLEDLPVVIKFILHNVKAADAVEVISDLRKSLDLSSCVLPLQLLGSQRKLKSQAQASSSMSQVTTSQNCVKLLFDVIKQAVRFQKDVSEAWIKAIENSTSVSDHKVLDLIVLLLIHSTNSKNRKQTEKVLRSKIRLGCMPEQLMQNAFQNHSMVIKDFFPSILSLAQTFLHSAHPAVVSFGSCMYKQAFAVFDSYCQQEVVCALVTHVCSGNETELDISLDVLTDLVILHPSLLLRYATFVKTILDSMQKLNPCQIRKLFYILSTLAFSQRQEGSYIQDDMHMVIRKWLSSSVPNHKQMGIIGAVTMMGSVALKRNEADGGLLERPELSIECDGQLSTLLDLVGFCCEQTPEVLALYYDELANLIEKQKGNLDLQLLDKFGKSLVEDFPNDFVVDLSPTVDGSFLFPVKSLYNLDEDETQGAIAINLLPLVSQSEPGRVADEMSNSRKRVVSPICLSPCFRLLRLYTGEQNNGSLEEIDALLGCPLYLTDLEVEGKLDSLSKQEREFLCSLLFYALNWFREVVNAFCQQQDAEMKGKVLTRLQNITELQNVLGKCLAATPGYVPPPATFDSEAPEGVPSINAGGPVRKKNGKKRKSDSSKACSAERTQADESSDGNQPDTELSELEKSATEKETGNPLAQLQSYRPYFRELDLEVFSVLHCGLLTKSILDTEMHTEASEVVQLGPAELCFLLDDMCWKLEHVLTPGSTRRVPFLKERGNKDVGFSHLCQRSPKEVAVCVVKLLKPLCNHMENMHNYFQTVIPNQGVVDESGLNIQEYQLMSSCYHQLLLAFRLLFAWSGFSQHENSNLLRSALQVLADRLKPGETEFLPLEELISESFQYLLNFQASIPSFQCAFILTQVLMAISEKPMTGWKREKMASLAKQFLCQSWMKPGGDREKGSHFNSALHTLLCVYLEHTDNILKAIEEISSVGVPELINSAKDGCSSTYPTLSRQTFPVFFRVMMAQLESSVKSIPAGKPSDSGEVQLEKLLKWNIAVRNFHILINLVKVFDSRPVLSICLKYGRLFVEAFLKLAMPLLDHSFKKHRDDVQSLLKTLQLSTRQLHHMCGHSKIHQDLGLTNHVPLLKKSLEQFVYRVKAMLAFNHCQEAFWVGVLKNRDLQGEEILSQASAAPEEDSAEGSEEDTADSAAEEPDGTDSDSGGAGR
notes: FANCD2, Gallus gallus, full length cDNA synthesized (GeneArt); C-terminal extension with a 3C protease site before the double StrepII tag; no cleavage is described; also called FANCD2 homodimer; D2-D2; source: Sf9, purified (Strep-Tactin, heparin, Superdex 200); not shown: double StrepII, C-terminal, kept

Assays:
[1] = target: B2; assay: pull-down; StrepII-tagged FANCD2 held on StrepTactin Sepharose, FANCI added at FANCD2:FANCI molar ratios 1:0 to 1:5 and 0:5; 50 mM HEPES pH 7.5, 150 mM NaCl, 1 mM TCEP; 15 min room temperature, 30 min 4 °C on resin, two washes; bound fraction by SDS-PAGE; conditions: both partners purified
[2] = target: the molecule itself; assay: SEC; Superdex 200 10/300, 50 mM HEPES pH 7.5, 150 mM NaCl, 1 mM TCEP; 300 µl of each protein at 1 µM; mix of 0.5 µM FANCD2 with 1 µM FANCI incubated 30 min at room temperature; fractions by SDS-PAGE

stoichiometry N [1] | Binder | stoichiometry N [2]
~1 | B1 | 
 | B2 | 2
